Assay results from patent publication US20050137135A1 (priority 2002, published 2005).
Entries after “also recorded” stand apart in the source; their conditions may differ. Ends that are not written are not given here.

Key:
[1] = test system: caspase-3 activity in INS-1 (832/13) cells; assay: Caspase-3 activity induced by glucose deprivation; type: cell-based; conditions: 6 h; 100 nM GIP, 10 µM forskolin
Protocol: (§1) INS-1 cells (clone 832/13) seeded into 6-well plates were serum starved for 12-24 h and subjected to glucose deprivation (RPMI with 0.1% BSA) or treatment with 2 mM streptozotocin (STZ). […] Following treatment, caspase-3 activity was determined after 2, 6, or 24 h according to the manufacturers' protocol (Molecular Probes, Eugene, Oreg., USA). Caspase-3 activity/well was corrected for total protein content using the BCA protein assay (Pierce, Roxford, II, USA).

INS-1 (832/13) cells [2] = assay: Glucose dependent β-cell proliferation (CYQUANT cell quantification); type: cell-based; conditions: for cell proliferation, % of growth in the presence of 5.5 mM glucose: FIG. 15A; for cell growth, % of that measured in the presence of 5.5 mM glucose: separate experiment, n=4
Protocol: (§2) Cell passages 45-60 were used.
Cells were seeded into 96-well plates (5×10^4 cells/well) prior to experimentation. […] Thereafter, cells were washed with KRBH (115 mM NaCl, 4.7 mM KCl, 1.2 mM KH2PO4, 10 mM NaHCO3, 1.28 mM CaCl2, 1.2 mM MgSO4 containing 10 mM HEPES and 0.1% bovine serum albumin, pH 7.4) and frozen at −70° C. until assayed. Cells were quantified using the CYQUANT™ assay system (Molecular Probes, Eugene, Oreg., USA) according to the manufacturers' protocol. Final cell numbers were always greater than the initial number plated in assessing cellular proliferation.

[3] = in vivo; cited from earlier work
[4] = test system: caspase-3 activity in INS-1 (832/13) cells; assay: Caspase-3 activity induced by streptozotocin (STZ); type: cell-based; conditions: added 10 minutes prior to and during a 30 minute STZ exposure
Protocol: as §1

INS-1 (832/13) cells [5] = assay: Cell survival during glucose deprivation (CYQUANT); type: cell-based
Protocol: as §2
Cells were seeded into 96-well plates (5×10^4 cells/well) prior to experimentation. […] Cells were quantified using the CYQUANT™ assay system (Molecular Probes, Eugene, Oreg., USA) according to the manufacturers' protocol.
Cell survival was assessed in the presence of prolonged glucose deprivation.

[6] = test system: INS-1 cells (clone 832/13); assay: Insulin release from INS-1 (832/13) cells; type: cell-based; conditions: 10 nM GIP, 60 minutes, n=3
Description: as §2

[7] = target: T1, rat pancreatic islet (wild type) GIP-receptor stably expressed on CHO-K1 cells (rat) (UniProt P43219); assay: cell-based or functional assay
T1 sequence (looked up): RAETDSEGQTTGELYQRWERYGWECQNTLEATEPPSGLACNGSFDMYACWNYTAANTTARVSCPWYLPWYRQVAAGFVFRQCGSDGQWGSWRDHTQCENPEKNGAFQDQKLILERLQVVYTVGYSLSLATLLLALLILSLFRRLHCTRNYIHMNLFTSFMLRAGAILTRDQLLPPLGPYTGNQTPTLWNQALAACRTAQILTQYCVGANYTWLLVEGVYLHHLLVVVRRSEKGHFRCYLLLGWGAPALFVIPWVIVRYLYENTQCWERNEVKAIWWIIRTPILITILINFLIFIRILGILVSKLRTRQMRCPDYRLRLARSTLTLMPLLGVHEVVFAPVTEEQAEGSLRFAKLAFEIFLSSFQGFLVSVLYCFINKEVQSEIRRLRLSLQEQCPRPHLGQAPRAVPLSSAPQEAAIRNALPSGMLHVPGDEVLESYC

[8] = target: T1, rat pancreatic islet (wild type) GIP-receptor stably expressed on CHO-K1 cells (rat); assay: displacement of 125I-GIP from intact CHO-K1 cells expressing rat GIP receptor, 10 µM peptide
[9] = target: T1, rat pancreatic islet (wild type) GIP-receptor stably expressed on CHO-K1 cells (rat); assay: competition with 125I-GIP on intact CHO-K1 cells expressing rat GIP receptor
[10] = target: T2, rat pancreatic islet (wild type) GIP-receptor stably expressed on CHO-K1 cells (rat, UniProt P43219 19-455); assay: cell-based or functional assay
T2 sequence (looked up): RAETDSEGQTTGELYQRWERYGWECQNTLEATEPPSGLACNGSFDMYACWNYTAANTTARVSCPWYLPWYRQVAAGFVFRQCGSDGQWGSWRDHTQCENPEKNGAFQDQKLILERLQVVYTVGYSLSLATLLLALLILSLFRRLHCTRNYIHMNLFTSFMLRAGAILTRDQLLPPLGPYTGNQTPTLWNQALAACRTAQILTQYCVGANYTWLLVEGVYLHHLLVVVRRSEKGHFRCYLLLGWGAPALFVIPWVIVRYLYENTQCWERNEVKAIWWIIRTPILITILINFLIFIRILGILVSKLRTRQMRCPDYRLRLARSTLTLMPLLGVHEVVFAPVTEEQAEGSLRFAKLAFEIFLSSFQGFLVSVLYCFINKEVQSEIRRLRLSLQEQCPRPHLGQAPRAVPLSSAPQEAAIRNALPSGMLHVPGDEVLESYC

[11] = target: T2, rat pancreatic islet (wild type) …; assay: displacement of 125I-GIP from intact CHO-K1 cells expressing rat GIP receptor, 10 µM peptide
Protocol: (§3) Cells were cultured in DMEM/F12, supplemented with 10% newborn calf serum, 50 units/ml penicillin G, and 50 μg/ml streptomycin (Culture media and antibiotics from Gibco BRL, Life Technologies). Cells were grown in 75 cm² flasks until 80-90% confluent, when they were split and seeded onto 24 well plates at a density of 50,000 cells/well. Experiments were carried out 48 h later.
(§4) Binding studies using ¹²⁵I-labeled spGIP₁₋₄₂, purified by high performance liquid chromatography (HPLC), were performed essentially as described previously-[21]. wtGIP-R1 Cells (1-5×10⁵/well) were washed twice at 4° C. in binding buffer (BB), consisting of DMEM/F12 (GIBCO), 15 mM HEPES, 0.1% bovine serum albumin (BSA), 1% Trasylol (aprotinin; Bayer), pH 7.4. They were incubated for 12-16 h at 4° C. with ¹²⁵I-spGIP (50,000 cpm) in the presence or absence of unlabeled GIP₁₋₄₂ or analogue. Following incubation, cells were washed twice with ice cold buffer, solubilized with 0.1 M NaOH (1 ml), and transferred to culture tubes for counting of cell-associated radioactivity. Nonspecific binding was defined as that measured in the presence of 1 μM GIP₁₋₄₂ or GIP₁₋₃₀, and specific binding expressed as % of binding in the absence of competitor (% B/Bo).

[12] = target: T2, rat pancreatic islet (wild type) …; assay: competition with 125I-GIP on intact CHO-K1 cells expressing rat GIP receptor
Protocol: as §3, §4

Molecule: CC(=O)N[C@@H](CC(=O)O)C(=O)N[C@@H](CCC(=O)O)C(=O)N[C@H](C(=O)N[C@H](C=O)CC(=O)O)C(C)C [Ac-DEVD-CHO]
- 0 mM glucose induced caspase-3 activity [1]: completely blocked low glucose activation

Molecule: CC[C@H](C)[C@H](NC(=O)[C@H](CO)NC(=O)[C@H](Cc1ccc(O)cc1)NC(=O)[C@H](CC(=O)O)NC(=O)[C@H](CO)NC(=O)[C@@H](NC(=O)[C@H](Cc1ccccc1)NC(=O)[C@@H](NC(=O)CNC(=O)[C@H](CCC(=O)O)NC(=O)[C@H](C)NC(=O)[C@@H](N)Cc1ccc(O)cc1)[C@@H](C)O)[C@@H](C)CC)C(=O)N[C@@H](C)C(=O)N[C@@H](CCSC)C(=O)N[C@@H](CC(=O)O)C(=O)N[C@@H](CCCCN)C(=O)N[C@H](C(=O)N[C@@H](Cc1c[nH]cn1)C(=O)N[C@@H](CCC(N)=O)C(=O)N[C@@H](CCC(N)=O)C(=O)N[C@@H](CC(=O)O)C(=O)N[C@@H](Cc1ccccc1)C(=O)N[C@H](C(=O)N[C@@H](CC(N)=O)C(=O)N[C@@H](Cc1c[nH]c2ccccc12)C(=O)N[C@@H](CC(C)C)C(=O)N[C@@H](CC(C)C)C(=O)N[C@@H](C)C(=O)N[C@@H](CCC(N)=O)C(=O)N[C@@H](CCCCN)C(=O)NCC(=O)N[C@@H](CCCCN)C(=O)N[C@@H](CCCCN)C(=O)N[C@@H](CC(N)=O)C(=O)N[C@@H](CC(=O)O)C(=O)N[C@@H](Cc1c[nH]c2ccccc12)C(=O)N[C@@H](CCCCN)C(=O)N[C@@H](Cc1c[nH]cn1)C(=O)N[C@@H](CC(N)=O)C(=O)N[C@H](C(=O)N[C@H](C(=O)N[C@@H](CCC(N)=O)C(=O)O)[C@@H](C)O)[C@@H](C)CC)C(C)C)[C@@H](C)CC [GIP, glucose-dependent insulinotropic polypeptide]
- potentiation of glucose dependent β-cell proliferation (INS-1 (832/13) cells [2]; 11 mM glucose): potentiates 11 mM glucose induced cell growth
- cell proliferation, % of growth in the presence of 5.5 mM glucose (INS-1 (832/13) cells [2]; 11 mM glucose, 100 nM): 158±16%
- cell growth, % of that measured in the presence of 5.5 mM glucose (INS-1 (832/13) cells [2]; 100 nM): 131±7%
- biological half-life [3]: ~2 min
- STZ induced caspase-3 activity [4]: protect against the pro-apoptotic (caspase-3 activating) effects of STZ completely; also recorded: ablates
- 0 mM glucose induced caspase-3 activity [1]: completely reversed; also recorded: ablates
- effect on cell survival during glucose deprivation (INS-1 (832/13) cells [5]; 0 mM glucose): promotes INS-1 (832/13) cell survival during glucose deprivation in a concentration-dependent manner
- protection against wortmannin-induced cell loss (INS-1 (832/13) cells [5]; n=3, p<0.05): partially protected; also recorded: partially reversed
- 5.5 mM glucose stimulated insulin secretion [6]: 2.44±0.29 % total insulin secreted

Molecule: GH: GH, comparator for cell growth in INS-1 cells
- cell proliferation, % of growth in the presence of 5.5 mM glucose (INS-1 (832/13) cells [2]; 11 mM glucose, 10 nM): 158±9%

Molecule: GIP 15-42OH (peptide)
- cAMP Production (Fold Basal) at 10 µM [7]: 1.02 fold basal
- cAMP Production (Fold Basal) at 20 µM [7]: 1.01 fold basal
- % Displacement at 10 µM [8]: 83.3%
- IC50 [9]: 1270 nM

Molecule: glucagon-like peptide-17-36 [GLP-1]
- cell growth, % of that measured in the presence of 5.5 mM glucose (INS-1 (832/13) cells [2]; 100 nM): 129±4%

B1: GIP 17-30NH2 (peptide, UniProt P01281 17-30, looked up)
peptide: IRQQDFVNWLLAQK-NH2
notes: range 17-30; also called GIP17-30a
- cAMP Production (Fold Basal) at 10 µM [10]: 1.13 fold basal
- cAMP Production (Fold Basal) at 20 µM [10]: 1.12 fold basal
- % Displacement at 10 µM [11]: 81.9%
- IC50 [12]: 1540 nM

B2: GIP 1-6NH2 (peptide, UniProt P09681 52-57, looked up)
peptide: YAEGTF-NH2
- cAMP Production (Fold Basal) at 10 µM [7]: 1.27 fold basal
- cAMP Production (Fold Basal) at 20 µM [7]: 1.08 fold basal
- % Displacement at 10 µM [8]: -3.6%

B3: GIP 15-30NH2 (peptide, UniProt P01281 15-30, looked up)
peptide: DKIRQQDFVNWLLAQK-NH2
notes: range 15-30; also called GIP15-30a
- cAMP Production (Fold Basal) at 10 µM [10]: 1.24 fold basal
- cAMP Production (Fold Basal) at 20 µM [10]: 1.01 fold basal
- % Displacement at 10 µM [11]: 82.7%
- IC50 [12]: 1400 nM

B4: GIP 1-13OH (peptide, UniProt P09681 52-64, looked up)
peptide: YAEGTFISDYSIA-OH
- cAMP Production (Fold Basal) at 10 µM [7]: 1.03 fold basal
- cAMP Production (Fold Basal) at 20 µM [7]: 1.15 fold basal
- % Displacement at 10 µM [8]: -0.2%
